B1: EPB41L3 (parent)
chain: SELGDYDPDECGSDYISEFRFAPN

Variants of: B1
Test: protein stability index of a GFP-peptide fusion (GPS, HEK-293T) (PSI 1-6); higher = more stable
Conditions: c terminus: a fixed tail appended
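Also: lentivirally expressed fusions sorted by FACS into six bins by GFP to DsRed ratio, PSI derived from sequencing read proportions per bin multiplied by bin number.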

Q: Which protein stability index does the source give for SELGDYDSDECGSDYISEFRFAPN [P8S] here?
A: The protein stability index was 2.29.

Q: Which protein stability index does the source give for SELGDYDNDECGSDYISEFRFAPN [P8N] here?
A: Its protein stability index is 2.19.

Q: For SELGDYDEDECGSDYISEFRFAPN [P8E], which protein stability index is on record?
A: Its protein stability index is 2.29.

Q: Which protein stability index does the source give for SELGDYDKDECGSDYISEFRFAPN [P8K] here?
A: Its protein stability index is 2.11.

Q: With SELGDYDLDECGSDYISEFRFAPN [P8L] as the variant, how does the protein stability index read?
A: The protein stability index was 2.26.

Q: Which protein stability index does the source give for SELGDYDQDECGSDYISEFRFAPN [P8Q] here?
A: The protein stability index was 2.03.

Q: With SELGDYDADECGSDYISEFRFAPN [P8A] as the variant, how does the protein stability index read?
A: The protein stability index was 2.44.

Q: For SELGDYDHDECGSDYISEFRFAPN [P8H], which protein stability index is on record?
A: Its protein stability index is 2.1.

Q: For SELGDYDRDECGSDYISEFRFAPN [P8R], which protein stability index is on record?
A: Its protein stability index is 2.1.

Q: Which protein stability index does the source give for SELGDYDGDECGSDYISEFRFAPN [P8G] here?
A: Its protein stability index is 2.06.

Q: With SELGDYDDDECGSDYISEFRFAPN [P8D] as the variant, how does the protein stability index read?
A: The protein stability index was 2.13.

Q: With SELGDYDFDECGSDYISEFRFAPN [P8F] as the variant, how does the protein stability index read?
A: The protein stability index was 2.37.

Q: Which protein stability index does the source give for SELGDYDIDECGSDYISEFRFAPN [P8I] here?
A: The protein stability index was 1.77.

Q: With SELGDYDVDECGSDYISEFRFAPN [P8V] as the variant, how does the protein stability index read?
A: Its protein stability index is 1.9.

Q: Which protein stability index does the source give for SELGDYDMDECGSDYISEFRFAPN [P8M] here?
A: The protein stability index was 2.08.

Q: Which protein stability index does the source give for SELGDYDWDECGSDYISEFRFAPN [P8W] here?
A: The protein stability index was 1.76.

Q: For SELGDYDCDECGSDYISEFRFAPN [P8C], which protein stability index is on record?
A: Its protein stability index is 1.51.

Q: For SELGDYDYDECGSDYISEFRFAPN [P8Y], which protein stability index is on record?
A: The protein stability index was 1.82.

Q: For SELGDYDTDECGSDYISEFRFAPN [P8T], which protein stability index is on record?
A: Its protein stability index is 1.92.

Q: For SELMDYDPDECGSDYISEFRFAPN [G4M], which protein stability index is on record?
A: The protein stability index was 2.12.

Q: Which protein stability index does the source give for SELFDYDPDECGSDYISEFRFAPN [G4F] here?
A: The protein stability index was 1.79.

Q: Which protein stability index does the source give for SELIDYDPDECGSDYISEFRFAPN [G4I] here?
A: The protein stability index was 1.95.

Q: Which protein stability index does the source give for SELADYDPDECGSDYISEFRFAPN [G4A] here?
A: The protein stability index was 2.56.

Q: With SELDDYDPDECGSDYISEFRFAPN [G4D] as the variant, how does the protein stability index read?
A: Its protein stability index is 2.35.

Q: For SELHDYDPDECGSDYISEFRFAPN [G4H], which protein stability index is on record?
A: Its protein stability index is 1.67.

Q: With SELEDYDPDECGSDYISEFRFAPN [G4E] as the variant, how does the protein stability index read?
A: Its protein stability index is 2.43.

Q: With SELVDYDPDECGSDYISEFRFAPN [G4V] as the variant, how does the protein stability index read?
A: Its protein stability index is 2.06.

Q: Which protein stability index does the source give for SELRDYDPDECGSDYISEFRFAPN [G4R] here?
A: The protein stability index was 2.67.

Q: Which protein stability index does the source give for SELWDYDPDECGSDYISEFRFAPN [G4W] here?
A: Its protein stability index is 1.7.

Q: For SELTDYDPDECGSDYISEFRFAPN [G4T], which protein stability index is on record?
A: Its protein stability index is 2.39.

Q: Which protein stability index does the source give for SELYDYDPDECGSDYISEFRFAPN [G4Y] here?
A: The protein stability index was 2.12.

Q: With SELLDYDPDECGSDYISEFRFAPN [G4L] as the variant, how does the protein stability index read?
A: Its protein stability index is 2.

Q: With SELCDYDPDECGSDYISEFRFAPN [G4C] as the variant, how does the protein stability index read?
A: The protein stability index was 1.94.

Q: Which protein stability index does the source give for SELSDYDPDECGSDYISEFRFAPN [G4S] here?
A: The protein stability index was 2.19.

Q: For SELPDYDPDECGSDYISEFRFAPN [G4P], which protein stability index is on record?
A: Its protein stability index is 2.23.

Q: With SELKDYDPDECGSDYISEFRFAPN [G4K] as the variant, how does the protein stability index read?
A: Its protein stability index is 2.18.

Q: For SELQDYDPDECGSDYISEFRFAPN [G4Q], which protein stability index is on record?
A: The protein stability index was 2.

Q: With SELNDYDPDECGSDYISEFRFAPN [G4N] as the variant, how does the protein stability index read?
A: The protein stability index was 1.9.

Q: For SEAGDYDPDECGSDYISEFRFAPN [L3A], which protein stability index is on record?
A: Its protein stability index is 2.05.

Q: With SEMGDYDPDECGSDYISEFRFAPN [L3M] as the variant, how does the protein stability index read?
A: Its protein stability index is 2.02.

Q: With SECGDYDPDECGSDYISEFRFAPN [L3C] as the variant, how does the protein stability index read?
A: The protein stability index was 2.15.

Q: Which protein stability index does the source give for SETGDYDPDECGSDYISEFRFAPN [L3T] here?
A: The protein stability index was 2.2.

Q: With SEVGDYDPDECGSDYISEFRFAPN [L3V] as the variant, how does the protein stability index read?
A: Its protein stability index is 2.33.

Q: With SEGGDYDPDECGSDYISEFRFAPN [L3G] as the variant, how does the protein stability index read?
A: Its protein stability index is 2.05.

Q: For SEPGDYDPDECGSDYISEFRFAPN [L3P], which protein stability index is on record?
A: The protein stability index was 2.27.

Q: With SERGDYDPDECGSDYISEFRFAPN [L3R] as the variant, how does the protein stability index read?
A: The protein stability index was 2.03.

Q: For SEHGDYDPDECGSDYISEFRFAPN [L3H], which protein stability index is on record?
A: Its protein stability index is 1.74.

Q: With SEFGDYDPDECGSDYISEFRFAPN [L3F] as the variant, how does the protein stability index read?
A: Its protein stability index is 2.36.

Q: Which protein stability index does the source give for SEQGDYDPDECGSDYISEFRFAPN [L3Q] here?
A: Its protein stability index is 2.46.

Q: For SEDGDYDPDECGSDYISEFRFAPN [L3D], which protein stability index is on record?
A: Its protein stability index is 2.66.

Q: For SEYGDYDPDECGSDYISEFRFAPN [L3Y], which protein stability index is on record?
A: Its protein stability index is 1.9.

Q: For SEWGDYDPDECGSDYISEFRFAPN [L3W], which protein stability index is on record?
A: Its protein stability index is 1.91.

Q: Which protein stability index does the source give for SEEGDYDPDECGSDYISEFRFAPN [L3E] here?
A: The protein stability index was 1.88.

Q: For SEKGDYDPDECGSDYISEFRFAPN [L3K], which protein stability index is on record?
A: The protein stability index was 1.74.

Q: For SESGDYDPDECGSDYISEFRFAPN [L3S], which protein stability index is on record?
A: The protein stability index was 2.67.

Q: For SENGDYDPDECGSDYISEFRFAPN [L3N], which protein stability index is on record?
A: The protein stability index was 2.22.

Q: With SEIGDYDPDECGSDYISEFRFAPN [L3I] as the variant, how does the protein stability index read?
A: Its protein stability index is 2.02.

Q: With SELGDPDPDECGSDYISEFRFAPN [Y6P] as the variant, how does the protein stability index read?
A: Its protein stability index is 2.13.

Q: With SELGDEDPDECGSDYISEFRFAPN [Y6E] as the variant, how does the protein stability index read?
A: Its protein stability index is 2.37.

Q: For SELGDHDPDECGSDYISEFRFAPN [Y6H], which protein stability index is on record?
A: The protein stability index was 1.73.

Q: For SELGDADPDECGSDYISEFRFAPN [Y6A], which protein stability index is on record?
A: The protein stability index was 2.46.

Q: Which protein stability index does the source give for SELGDRDPDECGSDYISEFRFAPN [Y6R] here?
A: Its protein stability index is 1.84.

Q: For SELGDMDPDECGSDYISEFRFAPN [Y6M], which protein stability index is on record?
A: Its protein stability index is 1.98.

Q: With SELGDGDPDECGSDYISEFRFAPN [Y6G] as the variant, how does the protein stability index read?
A: Its protein stability index is 2.48.

Q: For SELGDNDPDECGSDYISEFRFAPN [Y6N], which protein stability index is on record?
A: The protein stability index was 2.15.

Q: With SELGDCDPDECGSDYISEFRFAPN [Y6C] as the variant, how does the protein stability index read?
A: Its protein stability index is 2.27.

Q: Which protein stability index does the source give for SELGDSDPDECGSDYISEFRFAPN [Y6S] here?
A: The protein stability index was 2.11.

Q: For SELGDFDPDECGSDYISEFRFAPN [Y6F], which protein stability index is on record?
A: Its protein stability index is 2.01.

Q: With SELGDQDPDECGSDYISEFRFAPN [Y6Q] as the variant, how does the protein stability index read?
A: Its protein stability index is 2.11.

Q: Which protein stability index does the source give for SELGDKDPDECGSDYISEFRFAPN [Y6K] here?
A: Its protein stability index is 2.17.

Q: With SELGDLDPDECGSDYISEFRFAPN [Y6L] as the variant, how does the protein stability index read?
A: The protein stability index was 2.19.

Q: For SELGDIDPDECGSDYISEFRFAPN [Y6I], which protein stability index is on record?
A: Its protein stability index is 2.06.

Q: With SELGDVDPDECGSDYISEFRFAPN [Y6V] as the variant, how does the protein stability index read?
A: Its protein stability index is 2.1.

Q: With SELGDDDPDECGSDYISEFRFAPN [Y6D] as the variant, how does the protein stability index read?
A: The protein stability index was 2.49.

Q: With SELGDTDPDECGSDYISEFRFAPN [Y6T] as the variant, how does the protein stability index read?
A: Its protein stability index is 1.97.

Q: For SELGDWDPDECGSDYISEFRFAPN [Y6W], which protein stability index is on record?
A: The protein stability index was 2.31.

Q: Which protein stability index does the source give for SLLGDYDPDECGSDYISEFRFAPN [E2L] here?
A: The protein stability index was 1.77.

Q: With SHLGDYDPDECGSDYISEFRFAPN [E2H] as the variant, how does the protein stability index read?
A: Its protein stability index is 1.9.

Q: Which protein stability index does the source give for SFLGDYDPDECGSDYISEFRFAPN [E2F] here?
A: Its protein stability index is 2.14.

Q: Which protein stability index does the source give for STLGDYDPDECGSDYISEFRFAPN [E2T] here?
A: The protein stability index was 1.56.

Q: Which protein stability index does the source give for SALGDYDPDECGSDYISEFRFAPN [E2A] here?
A: Its protein stability index is 1.61.

Q: With SVLGDYDPDECGSDYISEFRFAPN [E2V] as the variant, how does the protein stability index read?
A: The protein stability index was 2.04.

Q: For SKLGDYDPDECGSDYISEFRFAPN [E2K], which protein stability index is on record?
A: Its protein stability index is 1.94.

Q: Which protein stability index does the source give for SNLGDYDPDECGSDYISEFRFAPN [E2N] here?
A: The protein stability index was 2.03.

Q: With SYLGDYDPDECGSDYISEFRFAPN [E2Y] as the variant, how does the protein stability index read?
A: Its protein stability index is 2.07.

Q: For SILGDYDPDECGSDYISEFRFAPN [E2I], which protein stability index is on record?
A: Its protein stability index is 1.7.

Q: Which protein stability index does the source give for SRLGDYDPDECGSDYISEFRFAPN [E2R] here?
A: Its protein stability index is 1.85.

Q: For SSLGDYDPDECGSDYISEFRFAPN [E2S], which protein stability index is on record?
A: Its protein stability index is 1.68.

Q: Which protein stability index does the source give for SPLGDYDPDECGSDYISEFRFAPN [E2P] here?
A: The protein stability index was 2.54.

Q: Which protein stability index does the source give for SWLGDYDPDECGSDYISEFRFAPN [E2W] here?
A: The protein stability index was 1.77.

Q: For SMLGDYDPDECGSDYISEFRFAPN [E2M], which protein stability index is on record?
A: Its protein stability index is 1.81.

Q: With SQLGDYDPDECGSDYISEFRFAPN [E2Q] as the variant, how does the protein stability index read?
A: The protein stability index was 1.9.

Q: For SCLGDYDPDECGSDYISEFRFAPN [E2C], which protein stability index is on record?
A: The protein stability index was 2.19.

Q: Which protein stability index does the source give for SDLGDYDPDECGSDYISEFRFAPN [E2D] here?
A: The protein stability index was 1.79.

— the supplement of paper PMC10567573
